Data from publication PMC12075686, “Structural basis of phosphorylation-independent nuclear import of CIRBP by TNPO3” (Nature Communications, 2025).
Where two headings read alike, the source gives them in different places. Values belong to the molecule of their own block, whether it stands above or below them. Non-standard residues stand in square brackets, D forms with d. Residues, ends and D or L forms follow the SMILES beside them. No end group written: not given here. pS = N[C@@H](COP(=O)(O)O)C(=O)O

Legend:
[1] = target: Transportin 3 (TNPO3), full-length wild type (human) (UniProt Q9Y5L0); assay: ITC; 100 µM ligand in the syringe injected (28 x 10 µL) into 10 µM TNPO3 (WT or C511A) in the cell; 25 °C; 50 mM Tris-HCl pH 7.5, 150 mM NaCl, 2 mM TCEP, 0.04% NaN3
TNPO3 WT = target: T1, TNPO3 WT (Homo sapiens, UniProt Q9Y5L0); assay: ITC, ligand titrated into TNPO3 WT; format: binding; settings: for Kd / ΔS: TNPO3 WT; for Kd: pH 7.5, read-out: TNPO3 binding Kd
T1 sequence (Q9Y5L0 1-923): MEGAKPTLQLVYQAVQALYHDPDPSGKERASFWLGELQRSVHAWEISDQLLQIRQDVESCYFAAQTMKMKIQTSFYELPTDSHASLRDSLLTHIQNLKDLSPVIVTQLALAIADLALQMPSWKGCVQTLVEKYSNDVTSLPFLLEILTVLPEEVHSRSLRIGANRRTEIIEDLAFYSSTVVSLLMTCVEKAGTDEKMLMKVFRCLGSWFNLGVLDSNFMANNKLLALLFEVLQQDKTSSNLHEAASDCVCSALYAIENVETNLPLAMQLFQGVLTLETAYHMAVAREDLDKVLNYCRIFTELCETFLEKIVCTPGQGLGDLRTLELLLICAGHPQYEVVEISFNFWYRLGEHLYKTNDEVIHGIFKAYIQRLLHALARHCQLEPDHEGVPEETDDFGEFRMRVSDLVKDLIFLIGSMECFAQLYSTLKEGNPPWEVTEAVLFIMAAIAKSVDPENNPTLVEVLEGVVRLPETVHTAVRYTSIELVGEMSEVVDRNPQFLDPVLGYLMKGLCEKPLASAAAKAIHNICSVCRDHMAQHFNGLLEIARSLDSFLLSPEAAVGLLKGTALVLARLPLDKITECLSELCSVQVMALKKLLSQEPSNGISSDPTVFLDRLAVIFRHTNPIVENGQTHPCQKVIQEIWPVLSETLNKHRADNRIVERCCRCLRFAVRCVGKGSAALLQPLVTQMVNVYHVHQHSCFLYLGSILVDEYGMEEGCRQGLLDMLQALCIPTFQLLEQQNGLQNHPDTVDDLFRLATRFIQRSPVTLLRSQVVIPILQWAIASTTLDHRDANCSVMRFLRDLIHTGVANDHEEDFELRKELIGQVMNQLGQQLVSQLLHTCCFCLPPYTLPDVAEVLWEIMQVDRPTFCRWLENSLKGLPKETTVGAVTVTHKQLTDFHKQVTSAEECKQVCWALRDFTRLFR
Experimental: ITC has been performed by a Malvern Microcal VP-ITC at 25 °C for all binding studies. Samples have been dissolved in Tris buffer containing 50 mM Tris–HCl, 150 mM NaCl, 2 mM TCEP, and 0.04% NaN3 at pH 7.5. Binding studies of CIRBP^RSY and SRSF1^RS were performed with TNPO3 WT, and studies of CIRBP (157–172) and its mutants/phosphorylations were performed with TNPO3 C511A, respectively. Injection has been carried out by a syringe containing ligand solution of 100 μM, which adds ligand step-wise into the cell containing 10 μM TNPO3 during 28 injections of 10 μL each. Data analysis, curve fitting, and calculation of Kd, ΔH, and ΔS have been carried out using Origin-based 7.0 software provided by the manufacturer. All replicated ITC data are shown in Supplementary Fig. 6 and Supplementary Table 1.

TNPO3 = assay: NMR binding studies with TNPO3 (1H-15N HSQC, 1H-13C HMQC, 1H 1D, STD); set-up: species or system human; settings: pH 6.7; for spectral changes of 15N-labeled cargo upon addition of TNPO3 (1H,15N HSQC): 60 µM cargo, one stoichiometric equivalent of TNPO3, 298 K; for chemical shift perturbations of TNPO3 methyl groups upon ligand addition (1H,13C HMQC): 100 µM [IM-methyl 13C] labeled TNPO3, one stoichiometric equivalent of ligand, 298 K
Experimental: All NMR studies for TNPO3 were carried out using the wild type protein. Protein samples for ^1H-^13C HMQC were prepared at a concentration of 100 μM and equilibrated in a buffer containing 50 mM Tris–HCl, pH 6.7, 150 mM NaCl, 2 mM TCEP and 10% D2O. Spectral acquisitions for TNPO3 free and in complex with CIRBP^RSY and SRSF1^RS, respectively were performed at 298 K on a 700 MHz Bruker Avance III NMR spectrometer equipped with a TCI triple-resonance cryoprobe. The pulse program was sfhmqcf2gpph and the spectra were recorded with 32 scans, interscan delay of 1 s, 160 points in F1, 1024 points in F2, 5283.879 Hz spectral width in F1, and 11,160.714 Hz spectral width in F2. Spectra were processed using Topspin 4.1.3.
Spectral acquisitions for TNPO3 free and in complex with mCIRBP^RSY, pCIRBP^RSY, and pSRSF1^RS, respectively, were performed at 298 K on a 600 MHz Bruker Avance Neo NMR spectrometer equipped with a TXI 600S3 probehead. The pulse program was hmqcgpphwg and the spectra were recorded with 64 scans, interscan delay of 1 s, 200 points in F1, 1024 points in F2, 4545.455 Hz spectral width in F1, and 7812.500 Hz spectral width in F2. Spectra were processed using Topspin 4.3.0.
For ^1H-^15N HSQC spectra, protein samples were equilibrated in a buffer containing 50 mM Tris–HCl, pH 6.7, 150 mM NaCl, 2 mM TCEP, 0.04% NaN3, and 10% D2O (with additional 20 mM MgCl2 for CIRBP phosphorylation kinetics). Data were recorded at 298 K on the 600 MHz Bruker Avance Neo NMR spectrometer equipped with a TXI 600S3 probehead. The pulse program was hsqcetfpf3gpsi and was recorded with 8-16 scans, interscan delay of 1 s, 128 points in F1, 1024 points in F2, 1949.318 Hz spectral width in F1, and 9615.385 Hz spectral width in F2. Spectra were processed using Topspin 4.3.0.

[2] = target: CPSF6 RS-NLS (Homo sapiens) (UniProt Q16630); assay: FP; settings: cited from earlier work
CPSF6 RS-NLS (Homo sapiens), sequence (Q16630 490-551): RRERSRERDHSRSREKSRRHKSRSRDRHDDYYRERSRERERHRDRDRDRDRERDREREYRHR

[3] = target: SRSF1 RS-NLS (Homo sapiens) (UniProt Q07955); assay: FP; settings: cited from earlier work
SRSF1 RS-NLS (Homo sapiens), sequence (Q07955 198-227): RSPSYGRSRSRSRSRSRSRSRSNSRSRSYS

[4] = target: T2, Transportin 3 (TNPO3), full-length wild type (human, UniProt Q9Y5L0 1-923); assay: NMR titration; 1H NMR spectra of 50 µM peptide free and with a stoichiometric amount (50 µM) of TNPO3 WT; line broadening of peptide signals; settings: both partners purified
T2 construct: Transportin 3 (TNPO3), human, full-length wild type; For the NMR experiments made 15N-labelled with 13C-methyl labelling of isoleucine and methionine side chains ([IM-methyl 13C]); Vector pETM11-His6-protein A with a TEV site downstream of the protein A tag; also called TNPO3 WT; TNPO3 FL WT; source: E. coli BL21-(DE3) Star, purified (Ni-NTA, TEV cleavage, second Ni-NTA, SEC Superdex 200); not …
T2 sequence (looked up): T1 sequence (Q9Y5L0 1-923)

[5] = target: T3, Transportin 3 (TNPO3), full-length wild type (human, UniProt Q9Y5L0 1-923); assay: ITC; phosphorylated
T3 chain: T1 sequence (Q9Y5L0 1-923)

[6] = target: T3, Transportin 3 (TNPO3), full-length wild …; assay: ITC; phosphorylated, rep2
[7] = target: T2, Transportin 3 (TNPO3), full-length wild …; assay: ITC; 100 µM ligand in the syringe injected (28 x 10 µL) into 10 µM TNPO3 (WT or C511A) in the cell; 25 °C; 50 mM Tris-HCl pH 7.5, 150 mM NaCl, 2 mM TCEP, 0.04% NaN3; settings: both partners purified

Kd [1]: 2420 nM
Molecule: SR/RS-NLS of SRSF1, residues 195-211, phosphorylated in vitro by SRPK1 (from UniProt Q07955 195-211) (domain or fragment)

Kd (TNPO3 WT; ITC, 25 °C, replicate 1 (rep1)): 2490 ± 400 nM
Kd (TNPO3 WT; ITC, 25 °C, replicate 2 (rep2)): 2460 ± 500 nM
ΔS (TNPO3 WT; ITC, replicate 1 (rep1)): –9.12 cal/mol/deg
ΔS (TNPO3 WT; ITC, replicate 2 (rep2)): –34.0 cal/mol/deg
Molecule: pSRSF1^RS: SRSF1^RS phosphorylated in vitro using recombinant SRPK1 (DGPRSPSYGRSRSRSRS; also: multiple phosphoserines, sites not listed) [reference compound]
spectral changes of 15N-labeled cargo upon addition of TNPO3 (1H,15N HSQC) (TNPO3): extensive line broadening of several NMR signals
chemical shift perturbations of TNPO3 methyl groups upon ligand addition (1H,13C HMQC) (TNPO3): led to CSPs of several TNPO3 ^1H,^13C cross-peaks

Molecule: TNPO3 (from UniProt Q9Y5L0)
Kd [2]: 3400 nM
Kd [3]: 1300 nM

decrease of TNPO3 binding affinity upon SRPK1 phosphorylation (TNPO3 WT; ITC Kd 0.61 ± 0.10 versus 5.99 ± 0.96 µM): ten-fold
ΔS (TNPO3 WT; ITC, replicate 1 (rep1)): –112 cal/mol/deg
ΔS (TNPO3 WT; ITC, replicate 2 (rep2)): –50.6 cal/mol/deg
chemical shift perturbations of TNPO3 methyl groups upon ligand addition (1H,13C HMQC) (TNPO3): shifted to comparable end points
Molecule: C[C@H](NC(=O)[C@H](Cc1ccc(O)cc1)NC(=O)[C@H](CO)NC(=O)[C@H](CC(=O)O)NC(=O)[C@H](Cc1ccc(O)cc1)NC(=O)[C@H](CO)NC(=O)[C@H](CC(=O)O)NC(=O)[C@H](CCCNC(=N)N)NC(=O)[C@H](Cc1ccc(O)cc1)NC(=O)[C@H](CO)NC(=O)CNC(=O)CNC(=O)[C@H](CO)NC(=O)[C@H](CO)NC(=O)[C@H](CCCNC(=N)N)NC(=O)[C@H](CC(=O)O)NC(=O)[C@H](COP(=O)(O)O)NC(=O)[C@H](Cc1ccc(O)cc1)NC(=O)CNC(=O)CNC(=O)[C@H](COP(=O)(O)O)NC(=O)[C@H](CCC(N)=O)NC(=O)[C@H](COP(=O)(O)O)NC(=O)[C@H](CCCNC(=N)N)NC(=O)[C@H](CO)NC(=O)[C@H](CO)NC(=O)[C@H](Cc1ccc(O)cc1)NC(=O)[C@H](Cc1ccc(O)cc1)NC(=O)[C@H](CC(=O)O)NC(=O)[C@H](CCCNC(=N)N)NC(=O)[C@H](CO)NC(=O)CN)C(=O)N[C@H](C(=O)N[C@@H](Cc1c[nH]cn1)C(=O)N[C@@H](CC(N)=O)C(=O)N[C@@H](CCC(=O)O)C(=O)O)[C@@H](C)O [pCIRBP^RSY] (H-GSRDYYSSR[pS]Q[pS]GGY[pS]DRSSGGSYRDSYDSYATHNE-OH)

Kd of binding to TNPO3 (ITC), as given in text and figures (TNPO3 WT; ITC, 100 µM ligand into 10 µM TNPO3 WT, 28 injections of 10 µL, 25 °C, 50 mM Tris–HCl, 150 mM NaCl, 2 mM TCEP, 0.04% NaN3, pH 7.5, error = SD of the fit): no binding was detectable
spectral changes of 15N-labeled cargo upon addition of TNPO3 (1H,15N HSQC) (TNPO3): weak binding
chemical shift perturbations of TNPO3 methyl groups upon ligand addition (1H,13C HMQC) (TNPO3): no binding was observed
Molecule: DGPRSPSYGRSRSRSRS [SRSF1^RS, recombinant canonical SR/RS-NLS of human SRSF1 (195-211), unphosphorylated, reference compound]

binding result [4]: binds
B1: P5CS (3-20) synthetic peptide (peptide, UniProt P54886 3-20, looked up)
peptide: SQVYRCGFQPFNQHLLPW
notes: Delta-1-pyrroline-5-carboxylate synthase (P5CS), human, residues 3-20; also called P5CS^RSY (3–20); delta-1-pyrroline-5-carboxylate synthase; source: synthetic peptide (Peptide Specialty Laboratories GmbH)

Kd [5]: 2540 nM
Kd [6]: 2540 nM
Kd [7]: 5990 nM
B2: Phosphorylated RSY region of CIRBP (138-172), phosphorylated in vitro by SRPK1 (domain or fragment, human, UniProt Q14011 138-172, looked up)
chain: SRDYYSSR[pS]Q[pS]GGY[pS]DRSSGGSYRDSYDSYATHNE
notes: also called pCIRBP^RSY; phosphorylated CIRBP^RSY; source: E. coli BL21-(DE3) Star, purified; phosphorylated in vitro with recombinant SRPK1 and ATP overnight, isolated by SEC (Superdex 30 Increase); not shown: His6, N-terminal, cleaved; protein A, N-terminal, cleaved

binding result [4]: binds
B3: RBMX (276-291) synthetic peptide (peptide, UniProt P38159 276-291, looked up)
peptide: PSGGSYRDSYESYGNS
notes: also called RBMX^RSY (276–291); source: synthetic peptide (Peptide Specialty Laboratories GmbH)

binding result [4]: binds
B4: RBM39 (86-101) synthetic peptide (peptide, UniProt Q14498 86-101, looked up)
peptide: SRDRRFRGRYRSPYSG
notes: also called RBM39^RSY (86–101); source: synthetic peptide (Peptide Specialty Laboratories GmbH)
